± gives the half width of the 95% confidence interval.
Experiment: folding stability dG unfold from chymotrypsin proteolysis; higher = more stable
In short: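 Designed mini-proteins (under 80 residues, no cysteine) in a PA-tagged cDNA display construct were digested with trypsin and chymotrypsin. Each protease was used at 11 concentrations (threefold dilutions) plus a no-protease condition, followed by sequencing. K50 was inferred by Bayesian fitting of sequencing counts, and unfolding free energy was derived against a sequence-predicted unfolded-state K50 and a shared folded-state K50, per protease or combined. Only designs with AlphaFold2 dimer inter-PAE above 15 were kept.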

Compared with “SAGGNKGKTIQINFMIDPEDPEMMIEKISKWLQAKGFKIESIEPRPVGNRWMYSATFRVPNGREITIWSAGG [r13_421_TrROS]”, “SAGGSAGPKVEVELFPVPPFAPGSEFVLLVKTEDGDVILQRFRVKLEGNEPKIEPLGSIVLKPDELSAGGSA [r15_636_TrMRF]” is higher in “folding stability dG unfold” value: 1.61 ± 0.19 kcal/mol for the first, 2.09 ± 0.062 kcal/mol for the second.

Compared with “SAGGSAGGKYQEFEYMIMFPDGGMFRVKIEYSPNPGQVKIKIEFPGGEREITIPPGAPITIMPMSAGGSAGG [r6_927_TrROS]”, “SAGGSAGGSAGGLPEDIELEVEPLEITLEDGSRVRILIARAPDPEIAAIDIEVFPPDDPKSAGGSAGGSAGG [r11_338_TrMRF]” is lower in “folding stability dG unfold” value: 2.41 ± 0.054 kcal/mol for the first, 0.51 ± 0.071 kcal/mol for the second.

Compared with “SAGGSAGGSPDAPPPPVNVVVPIPESELLSEEELPGGTTLRTYRLPDGTEITVRTAPDGRVTVDSAGGSAGG [r6_119_JUSTAS]”, “SAGGMLPGLRPLLLAVLVPAEEPLEPEQVRELAEELRRELEEKGYGFAFRAIELEDFQLIIVDVVDPFSAGG [r13_442_TrMRF]” is lower in “folding stability dG unfold” value: 3.86 ± 0.059 kcal/mol for the first, 3.429 ± 0.03 kcal/mol for the second.

Going from “SAGGSADEELLEKAKEALKKAEPPKIVVLNLPLPSGKELKVTLDPTTNKFTAEFPDGGSKTFDFPESAGGSA [r15_977_JUSTAS]” to “SAGGSAGGDESSTPPVTTTSTTPLPDGSTVTVTSTTTYPDSTTTTTKTYSNGSTTTSTTTTPGSSAGGSAGG [r6_910_JUSTAS]”, the “folding stability dG unfold” value falls from 0.86 ± 0.096 kcal/mol to -0.803 ± 0.35 kcal/mol.

First: SAGGSAGGSAGGKTYTADEIKKIKKINGKWYVEIDGKTYEIPAKDIKIKKGDKIKIYPVSAGGSAGGSAGGS [r10_665_TrROS_Hall]
Second: SAGGSAGGSVLVIDSPEQIKKAIKEFKDNGAKSIHIRGPGRYWVIQIDPKEPKVKVERVPLGQSAGGSAGGS [r12_368_TrROS]
The “folding stability dG unfold” value of the first is higher: 1.59 ± 0.091 kcal/mol for the first, 0.674 ± 0.17 kcal/mol for the second.

Going from “SAPMKIVKKTDNTLYIYDKKTKKIVKITINDGTITVEEITYDKKTKEKKVETKTIKLSEEQLKKLKKLLSAG [r14_245_TrROS_Hall]” to “SAGGSAGGMKVTLTPVSGEKYEIEVESEEEAKEKVEKLAKKLGIPGEVKVTIEKGDKTYELTIISAGGSAGG [r6_532_JUSTAS]”, the “folding stability dG unfold” value rises from 0.7 ± 0.24 kcal/mol to 2.5 ± 0.11 kcal/mol.

Compared with “SAGGSSMEVEIDTSKSTTTYTHPSGEKVATRSLVLTPPSPGDPLRFLNVEFEKLPDGSVVVKKIVGSAGGSA [r2_362_JUSTAS]”, “SAGGPPPKWVKIDIFIFIYNPDNGRPIFIRITSIEIRLDENNELDVEIEFEVFDPNGKPVKYTMTFKSAGGS [r16_200_TrROS]” is higher in “folding stability dG unfold” value: -0.142 ± 0.32 kcal/mol for the first, 4.8 ± 0.11 kcal/mol for the second.

Going from “SAGGSAGGKKKIKPPEVTIKIKNKDGSVFEAKITKVEYDEETKKLYLEIEIEVNGKKYKLTIELSAGGSAGG [r6_962_TrROS_Hall]” to “SAGGSAGGSAGGSGPPSLPGVLVEIPEPLPGPEGTEFSDPKGYKYTYDPSNGKVLVERASAGGSAGGSAGGS [r4_78_JUSTAS]”, the “folding stability dG unfold” value falls from 4.49 ± 0.26 kcal/mol to -0.0458 ± 0.16 kcal/mol.

First: SAGGSEAEIVSVEFDEETGTISVLVRNSDGSLYRAEIRFERLPDGSLLVTIKVTLPDGKELTFVFPSAGGSA [r2_488_TrROS_Hall]
Second: SAGGSAGGSAMWVIRIWFPNGNKRTIPIPPNEKLTAEEILDEFRIPNGREMRILRVEIWPYSAGGSAGGSAG [r3_465_TrROS]
The “folding stability dG unfold” value of the first is higher: 5.77 ± 0.085 kcal/mol for the first, 2.66 ± 0.034 kcal/mol for the second.

Going from “SAGKIKKIEVKEVTNENGEKYKKITIEVEKEGKKVEIIVNKNGEKFIKVEKNGKTITLPLDEALELLKKSAG [r5_157_TrROS_Hall]” to “SAGGSAGGSAGTMTAEEIAKALGAKVVEVYPDKVVIEIEVDGKKYRITINEDGEVTVEEVSAGGSAGGSAGG [r17_252_TrROS_Hall]”, the “folding stability dG unfold” value rises from 1.19 ± 0.13 kcal/mol to 4.47 ± 0.15 kcal/mol.

Going from “SAGGSAGGFFHIEIEWRPVKLEDLPEEDAANGKELKPGDEIWVIVKIEIYPMPPPKFDKDGELNSAGGSAGG [r6_547_TrROS]” to “SAGGSAGGNTIMIPLPPNMPLDEVAKELMDAFPDYPIKDVEYERYGDRPMVTVRFPDGWKITIWSAGGSAGG [r6_492_TrROS]”, the “folding stability dG unfold” value falls from 3.31 ± 0.23 kcal/mol to 0.818 ± 0.22 kcal/mol.

Compared with “SAGGSAGGSAGSTVTLELEIDGVRITVKAELTPDGELRLTITEVEVLPPPPVVHPDDPEALKSAGGSAGGSA [r18_176_TrROS_Hall]”, “SAGGSAGGSAGGAPLVEVEEVETRRVKDPATKRWYRRTRVRVRNKETGEWYELEFVEPLSAGGSAGGSAGGS [r10_535_TrROS_Hall]” is higher in “folding stability dG unfold” value: 1.1 ± 0.064 kcal/mol for the first, 2.599 ± 0.02 kcal/mol for the second.

Compared with “SAGGSMIFETLGSEKLIKEKAEERGLDLVEYSVEGNKFFALLKDPAGKLVLTYSDEASVKKLGLDLSKLSAG [r5_12_JUSTAS]”, “SAGGSAGGSAGGMTLVIVVETEEQAEALAEELKKKGFEVTVERDEETNLLVVTVKVKPPPSAGGSAGGSAGG [r7_623_TrROS_Hall]” is higher in “folding stability dG unfold” value: 0.523 ± 0.08 kcal/mol for the first, 3.36 ± 0.11 kcal/mol for the second.

First: SAGKKKKIKIKVTIVVPVKTKEDVELMKELAEKFAPELGKETAKKLGLPPEVEEIEVDVNILIVSPEELSAG [r5_436_TrMRF]
Second: SAGGSAGGSAGGPDDWVEVYFIMVSIKPKEVKPDPNGGAEYEFEIKISIFPFWIPPDDISAGGSAGGSAGGS [r10_524_TrROS]
The “folding stability dG unfold” value of the first is lower: 1.89 ± 0.13 kcal/mol for the first, 4.15 ± 0.18 kcal/mol for the second.

Compared with “SAGGSAGGSAGGGELKELLKKNPGPLLLERPENTVSLILYDPKTGTYTVLTFSPTEPIPLSAGGSAGGSAGG [r7_84_JUSTAS]”, “SAAEIDEDGTIRIVLSEEAVKNMSEEELKALAEELAKLLPPGAKVEIKIVKPKPVKEEKKLYDKDGKEVSAG [r14_312_TrROS_Hall]” is lower in “folding stability dG unfold” value: 1.69 ± 0.11 kcal/mol for the first, 0.0971 ± 0.054 kcal/mol for the second.

With “SGEFKPIATIDAKDGKPEAIIDSVKELLPDSGPVLVVLDLPDGPPKVNVIDPSTGKVREFVPGGNITIVPSA [r9_853_TrMRF]” the “folding stability dG unfold” value was 1.39 ± 0.021 kcal/mol.

Reference: the supplement of paper PMC12764529
